Laboratory results from patent US9889181B2, “Bacteriophage lysin and antibiotic combinations against gram positive bacteria” (priority 2012, dated 2018).
Read-outs that look alike come from different tables or passages of the source.

Columns and labels:
Klebsiella spp. = assay: MIC, human gut bacteria; format: cell-based; conditions: N 8
Lactobacillus spp. = assay: MIC, human gut bacteria; format: cell-based; conditions: N 6
Lactococcus spp. = assay: MIC, human gut bacteria; format: cell-based; conditions: N 3
[1] = tested on: 20 different MSSA and 42 MRSA strains; assay: Time-kill assay, single agents at 1×MIC; format: cell-based, Staphylococcus aureus
Method: In order to more fully evaluate PlySs2's applicability to clinical Staphylococcal infections, time kill studies were undertaken against numerous Staphylococcus aureus strains, including methicillin resistant and methicillin sensitive strains. Time kill assays were performed according to CLSI methodology (CLSI document M07-A9 column 32 No. 2) on 42 methicillin resistant S. aureus (MRSA) strains and 20 methicillin sensitive S. aureus (MSSA) strains. Cultures of each strain (5.5×10^5-1×10^6 starting inoculum) were treated with PlySs2 lysin and with antibiotics daptomycin, oxacillin or vancomycin for comparison for 6 hours with aeration. MRSA and MSSA strains were treated with PlySs2, daptomycin and vancomycin. MSSA strains were also treated with oxacillin. 1×MIC concentrations of the different antibiotics were utilized, based on published and established antibiotic MIC values. PlySs2 lysin treatment was at approximately 1×MIC as previously determined (see TABLE 2 above). Culture aliquots were removed hourly up to 6 hours (time points taken at 15 and 30 min, 1 hr, 2 hr, 3 hr, 4 hr, 5 hr, and 6 hr) and added to a PBS/charcoal solution (to inactivate each drug), which was then serially diluted and plated for bacterial viability. The resulting log CFU/mL was plotted for each culture. Growth controls were included for each strain and represent bacterial growth in the absence of any antibacterial agent. Exemplary log kill curves for selected MRSA strains are depicted in FIG. 1. Exemplary log kill curves for selected MSSA strains are depicted in FIG. 2.
(§1) Rapid-kill kinetics are desirable in the clinical setting to treat patients with fulminant bacterial infections.

[2] = tested on: S. aureus cells (strain MW2); assay: Electron microscopy of bacteriolysis; format: cell-based, Staphylococcus aureus
Description: FIG. 4A-4F provides composite time kill curves of PlySS2 and antibiotics on S. aureus cells in vitro. (A, B) Composite time-kill curves of PlySS2 compared to oxacillin (OXA), vancomycin (VAN), and daptomycin (DAP) against sets of 20 MSSA and 42 MRSA strains, respectively. In each individual analysis, drug concentrations correspond to strain-specific 1×MIC values. Mean values (±standard error of the mean) are shown for each time-point. (C, D) Titration analysis of PlySS2 against sets of 15 contemporary clinical MSSA and MRSA isolates, respectively. In each individual analysis, PlySS2 concentrations correspond to strain-specific MIC values. […] (E,F) Transmission electron micrographs (3300× magnification) of S. aureus cells (strain MW2) before and after 3 second treatment with 8 µg/mL PlySS2. Scale bars correspond to […]. Lysis results in the loss of darkly stained cytoplasmic components.
as §1

[3] = tested on: MRSA strain MW2 and MSSA strain ATCC 29213; format: cell-based, Staphylococcus aureus; conditions: consistently across 1.25 to 15% surfactant
MRSA strain 269 (MW2) = assay: Combination MIC in 15% surfactant (Survanta); format: cell-based, Staphylococcus aureus
[4] = tested on: MRSA strain MW2 (also strains 738, 832); format: in vivo, BALB/c mice; conditions: 10^9 CFU, dosing at 2 hours, PlySs2 5.25 mg/kg
MRSA = assay: MIC, broth microdilution (CLSI M07-A9)
VISA = assay: MIC, broth microdilution (CLSI M07-A9); set-up: MIC 50% / MIC 90% / MIC Range: unit not given beside the values
[5] = tested on: Streptococcus pyogenes, Group A; assay: MIC, broth microdilution (CLSI M07-A9); conditions: Group A (54)
[6] = tested on: Streptococcus agalactiae, Group B; assay: MIC, broth microdilution (CLSI M07-A9); conditions: Group B (51)
[7] = tested on: Staphylococcus lugdiensis; assay: MIC, broth microdilution (CLSI M07-A9); conditions: Staphylococcus lugdiensis (10)
[8] = tested on: Staphylococcus epidermidis; assay: MIC, broth microdilution (CLSI M07-A9); conditions: Staphylococcus epidermidis (11)
Streptococcus pneumoniae = assay: MIC, broth microdilution (CLSI M07-A9); conditions: Streptococcus pneumoniae (26)
Streptococcus mutans = assay: MIC, broth microdilution (CLSI M07-A9); conditions: Streptococcus mutans (12)
Listeria monocytogenes = assay: MIC, broth microdilution (CLSI M07-A9); conditions: Listeria monocytogenes (12)
Acinetobacter baumannii = assay: MIC, broth microdilution (CLSI M07-A9); conditions: Acinetobacter baumannii (8)
Pseudomonas aeruginosa = assay: MIC, broth microdilution (CLSI M07-A9)
[9] = FIG. 27B, daptomycin 50 mg/kg once daily
[10] = FIG. 27E, vancomycin 110 mg/kg twice daily
[11] = Staphylcoccus aureus Methicillin resistant (120)
[12] = Vancomycin-intermediate (31) Staphylococcus aureus

B1: PlySs2: bacteriophage lysin derived from Streptococcus suis, amino acid sequence of FIG. 29 (SEQ ID NO: 1) (protein, listed as Streptococcus suis)
chain: MTTVNEALNNVRAQVGSGVSVGNGECYALASWYERMISPDATVGLGAGVGWVSGAIGDTISAKNIGSSYNWQANGWTVSTSGPFKAGQIVTLGATPGNPYGHVVIVEAVDGDRLTILEQNYGGKRYPVRNYYSAASYRQQVVHYITPPGTVAQSAPNLAGSRSYRETGTMTVTVDALNVRRAPNTSGEIVAVYKRGESFDYDTVIIDVNGYVWVSYIGGSGKRNYVATGATKDGKRFGNAWGTFK
Klebsiella spp.
  CF-301 MIC: >512 µg/mL
Lactobacillus spp.
  CF-301 MIC: >512 µg/mL
Lactococcus spp.
  CF-301 MIC: >512 µg/mL
[1]; 1×MIC
  time to reach bactericidal levels (≧3-log10 reduction in CFUs): ≤ 30 minutes
[1]; 1×MIC, up to 6 hours
  comparative kill: greater and faster than any antibiotic
[1]; all MRSA and MSSA strains tested, generally within the first hour of incubation
  maximal kill (log reduction): ≥ 3 log
[2]
  treatment time giving extensive bacteriolysis of S. aureus cocci: 15 s
[3]
  fold inhibition of MIC in the presence of Survanta: 8 fold
MRSA strain 269 (MW2)
  effective combination concentration as fraction of the MIC: ⅛
MRSA strain 269 (MW2); 24 hours
  effective concentration in PlySs2 plus daptomycin combination MIC: 2 µg/mL
[4]; [9]
  24 hour survival rate: 56%
  72 hour survival rate: 18%
[4]; [10]
  24 hour survival rate: 60%
  72 hour survival rate: 3%
MRSA; MRSA (n = 45)
  MIC90: 0.15 µM
MRSA; [11]
  MIC 50%: 4 µg/mL
  MIC 90%: 8 µg/mL
  MIC Range: 1 to 16 µg/mL
MRSA; strain MW2, without DTT
  MIC: 32 µg/mL
VISA; VISA (n = 10)
  MIC90: 1.2 µM
VISA; [12]
  MIC 50%: 8
  MIC 90%: 32
  MIC Range: 1-64
[5]
  MIC 50%: 2 µg/mL
  MIC 90%: 8 µg/mL
  MIC Range: 0.5 to 8 µg/mL
[6]
  MIC 50%: 8 µg/mL
  MIC 90%: 16 µg/mL
  MIC Range: 1 to 64 µg/mL
[7]
  MIC 50%: 8 µg/mL
  MIC 90%: 8 µg/mL
  MIC Range: 8 µg/mL
[8]
  MIC 50%: 128 µg/mL
  MIC 90%: 512 µg/mL
  MIC Range: 4 to 512 µg/mL
Streptococcus pneumoniae
  MIC 50%: 16 µg/mL
  MIC 90%: 64 µg/mL
  MIC Range: 1 to 64 µg/mL
Streptococcus mutans
  MIC 50%: 64 µg/mL
  MIC 90%: 256 µg/mL
  MIC Range: 2 to 256 µg/mL
Listeria monocytogenes
  MIC 50%: 128 µg/mL
  MIC 90%: 512 µg/mL
  MIC Range: 1 to 512 µg/mL
Acinetobacter baumannii
  MIC 50%: >512 µg/mL
  MIC 90%: >512 µg/mL
  MIC Range: >512 µg/mL
Pseudomonas aeruginosa; Pseudomonas aeruginosa (5)
  MIC 50%: >512 µg/mL
  MIC 90%: >512 µg/mL
  MIC Range: >512 µg/mL
Pseudomonas aeruginosa; Pseudomonas aeruginosa, N 11, human gut bacteria
  CF-301 MIC: >512 µg/mL
